Here are results for four sequences from paper PMC9474862.

This data set concerns the target APE1 WT (Homo sapiens) (UniProt P27695). The experiment in a line: EMSA. As to conditions: apparent Kd, 1 mM EDTA, EMSA: 20 nM NCP, 10 mM HEPES pH 7.5, 25 mM NaCl, 1 mM DTT, 0.1 mg/mL BSA, 5% native PAGE, 0.2x TBE, 4 °C (gel), binding temperature not stated.

pKd: −log10 of the molar value.

Sequence of UniProt P27695 (P27695 whole entry): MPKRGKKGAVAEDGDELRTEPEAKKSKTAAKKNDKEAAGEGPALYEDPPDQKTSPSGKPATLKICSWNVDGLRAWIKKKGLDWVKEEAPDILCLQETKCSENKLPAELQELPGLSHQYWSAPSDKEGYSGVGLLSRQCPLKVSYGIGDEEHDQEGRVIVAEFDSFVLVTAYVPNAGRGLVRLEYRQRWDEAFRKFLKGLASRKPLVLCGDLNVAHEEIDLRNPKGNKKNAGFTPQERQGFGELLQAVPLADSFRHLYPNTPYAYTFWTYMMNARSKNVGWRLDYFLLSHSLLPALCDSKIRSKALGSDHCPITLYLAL

A word on the pKd: it is the Kd on a negative log10 scale, so that one unit is a factor of ten. As to “ATCGAGAATCCCGGTGCCGAGGCCGCTCAATTGGTCGTAGACAGCTCTAGCACCGCTTAAACGCACGTACGCGCTGTCCCCCGCGTTTTAACCGCCAAGGGGATTACTCCCTAGTCTCCAGGCACGTGTCAGATATATACATCCGAT (double strand) [ND-NCP]”, for the setting “nonspecific binding, no AP site”, the negative logarithm of the Kd (pKd) was 7.15. “ATCGAGAATCCCGGTGCCGAGGCCGCTCAATTGGTCGTAGACAGCTCTAGCACCGCTTAAACGCACGTACGCGCTGTCCCCCGCGTTTTAACCGCCAAGGGGATTACTCCCTAGTCTCCAGGCACGTGTCAGATATATACATNCGAT / ATCGGATGTATATATCTGACACGTGCCTGGAGACTAGGGAGTAATCCCCTTGGCGGTTAAAACGCGGGGGACAGCGCGTACGTGCGTTTAAGCGGTGCTAGAGCTGTCTACGACCAATTGAGCGGCCTCGGCACCGGGATTCTCGAT [AP-NCP-6.5]”: the pKd (one-site fit with ligand depletion, N in strand 1 = THF (AP site analog) at SHL-6.5, occluded) was 7.70.

With “ATCGAGAATCCCGGTGCCGAGGCCGCTCAATTGGTCGTAGACAGCTCTAGCACCGCTTAAACGCACGTACGCGCTGTCCCCCGCGTTTTAACCGCCAAGGGGATTACTCCCTAGTCTCCAGGCACGTGTCAGATATATNCATCCGAT / ATCGGATGTATATATCTGACACGTGCCTGGAGACTAGGGAGTAATCCCCTTGGCGGTTAAAACGCGGGGGACAGCGCGTACGTGCGTTTAAGCGGTGCTAGAGCTGTCTACGACCAATTGAGCGGCCTCGGCACCGGGATTCTCGAT [AP-NCP-6]”, for the setting “one-site fit with ligand depletion, N in strand 1 = THF (AP site analog) at SHL-6, solvent-exposed”, the pKd is 7.77. As to “ATCGAGAATCCCGGTGCCGAGGCCGCTCAATTGGTCGTAGACAGCTCTAGCACCGCTTAAACGCACGTACGCNCTGTCCCCCGCGTTTTAACCGCCAAGGGGATTACTCCCTAGTCTCCAGGCACGTGTCAGATATATACATCCGAT / ATCGGATGTATATATCTGACACGTGCCTGGAGACTAGGGAGTAATCCCCTTGGCGGTTAAAACGCGGGGGACAGCGCGTACGTGCGTTTAAGCGGTGCTAGAGCTGTCTACGACCAATTGAGCGGCCTCGGCACCGGGATTCTCGAT [AP-NCP0]”, the pKd (one-site fit with ligand depletion, N in strand 1 = THF (AP site analog) at SHL0 (dyad), occluded) is 7.70.
